In paper doi:10.1101/2020.02.12.945204 (bioRxiv, 2020):

B1: recombinant human galectin-4 (natural protein)
chain: MAYVPAPGYQPTYNPTLPYYQPIPGGLNVGMSVYIQGVASEHMKRFFVNFVVGQDPGSDVAFHFNPRFDGWDKVVFNTLQGGKWGSEERKRSMPFKKGAAFELVFIVLAEHYKVVVNGNPFYEYGHRLPLQMVTHLQVDGDLQLQSINFIGGQPLRPQGPPMMPPYPGPGHCHQQLNSLPTMEGPPTFNPPVPYFGRLQGGLTARRTIIIKGYVPPTGKSFAINFKVGSSGDIALHINPRMGNGTVVRNSLLNGSWGSEEKKITHNPFGPGQFFDLSIRCGLDRFKVYANGQHLFDFAHRLSAFQRVDTLEIQGDVTLSYVQI
B2: H6 flagella (polymeric flagellin) from E. coli O127:H6 (natural protein)
chain: MAQVINTNSLSLITQNNINKNQSALSSSIERLSSGLRINSAKDDAAGQAIANRFTSNIKGLTQAARNANDGISVAQTTEGALSEINNNLQRIRELTVQASTGTNSDSDLDSIQDEIKSRLDEIDRVSGQTQFNGVNVLAKDGSMKIQVGANDGQTITIDLKKIDSDTLGLNGFNVNGKGETANTAATLKDMSGFTAAAAPGGTVGVTQYTDKSAVASSVDILNAVAGADGNKVTTSADVGFGTPAAAVTYTYNKDTNSYSAASDDISSANLAAFLNPQARDTTKATVTIGGKDQDVNIDKSGNLTAADDGAVLYMDATGNLTKNNAGGDTQATLAKVATATGAKAATIQTDKGTFTSDGTAFDGASMSIDANTFANAVKNDTYTATVGAKTYSVTTGSAAADTAYMSNGVLSDTPPTYYAQADGSITTTEDAAAGKLVYKGSDGKLTTDTTSKAESTSDPLAALDDAISQIDKFRSSLGAVQNRLDSAVTNLNNTTTNLSEAQSRIQDADYATEVSNMSKAQIIQQAGNSVLAKANQVPQQVLSLLQG
B3: H48 flagella (polymeric flagellin) from commensal E. coli K12:O175:H48 (natural protein)
chain: MAQVINTNSLSLITQNNINKNQSALSSSIERLSSGLRINSAKDDAAGQAIANRFTSNIKGLTQAARNANDGISVAQTTEGALSEINNNLQRVRELTVQATTGTNSESDLSSIQDEIKSRLDEIDRVSGQTQFNGVNVLAKNGSMKIQVGANDNQTITIDLKQIDAKTLGLDGFSVKNNDTVTTSAPVTAFGATTTNNIKLTGITLSTEAATDTGGTNPASIEGVYTDNGNDYYAKITGGDNDGKYYAVTVANDGTVTMATGATANATVTDANTTKATTITSGGTPVQIDNTAGSATANLGAVSLVKLQDSKGNDTDTYALKDTNGNLYAADVNETTGAVSVKTITYTDSSGAASSPTAVKLGGDDGKTEVVDIDGKTYDSADLNGGNLQTGLTAGGEALTAVANGKTTDPLKALDDAIASVDKFRSSLGAVQNRLDSAVTNLNNTTTNLSEAQSRIQDADYATEVSNMSKAQIIQQAGNSVLAKANQVPQQVLSLLQG

Legend:
[1] = biological target: B2; assay: ELISA
[2] = biological target: B3; assay: ELISA
SEC = biological target: the molecule itself; assay: SEC

Binder | binding result [1] | binding result [2] | binding result (SEC)
B1 | binds | binds | 
B2 |  |  | binds
B3 |  |  | binds
